Laboratory results published in the RNAGym collection of RNA variant scans (doi:10.7554/elife.80360).

B1: Hairpin Ribozyme (parent)
chain: GUCCUCUUUCACGUGCGCGUGAAAGAGAGAAGUGAACCAGAGAAACACACGUUGUGGUAUAUUACCUGGUA

Variants of: B1
Experiment: self-cleavage, relative activity (ratio to wild type); higher = more cleavage; co-transcriptional

Going from U33C C46A to A36G A47G, the self-cleavage rises from 0.0278 to 0.106.

First: A36C A61C
Second: A36C G40A
The self-cleavage of the first is lower: 0.116 for the first, 0.162 for the second.

Compared with G34C A61C, A36C G42A is lower in self-cleavage: 0.733 for the first, 0.0682 for the second.

Going from A36C G42U to A36C A47U, the self-cleavage rises from 0.116 to 0.29.

Going from A36C A47C to A35G U53A, the self-cleavage rises from 0.262 to 1.25.

First: A36C A41C
Second: A36C A41U
The self-cleavage of the first is lower: 0.401 for the first, 0.92 for the second.

Compared with A35G A64C, U33C U70C is lower in self-cleavage: 0.174 for the first, 0.0962 for the second.

Going from U33C U70G to G34A U58G, the self-cleavage rises from 0.147 to 1.36.

Compared with G34A U58A, A35G U63G is lower in self-cleavage: 1.09 for the first, 0.221 for the second.

Compared with A35G U63C, A35G U63A is lower in self-cleavage: 0.233 for the first, 0.232 for the second.

First: A35C U70C
Second: U33G A36G
The self-cleavage of the first is higher: 1.01 for the first, 0.0878 for the second.

Going from U33C C66U to U33C A45G, the self-cleavage rises from 0.149 to 0.227.

First: A35U G40C
Second: A35U G40A
The self-cleavage of the first is higher: 0.185 for the first, 0.154 for the second.

Going from G34U C37U to A35U U60G, the self-cleavage falls from 1.59 to 0.343.

Compared with A36C C66A, G34C A45G is higher in self-cleavage: 0.268 for the first, 0.368 for the second.

First: A35C U63G
Second: G34C G54U
The self-cleavage of the first is lower: 0.286 for the first, 1.19 for the second.

First: A35G C38A
Second: A35G U55C
The self-cleavage of the first is lower: 0.162 for the first, 0.3 for the second.

Compared with A35U A47C, A36G A61G is lower in self-cleavage: 0.258 for the first, 0.154 for the second.

Going from A36G A61U to A35C A43C, the self-cleavage falls from 0.205 to 0.0885.

First: A36C C48U
Second: A35U A36C
The self-cleavage of the first is lower: 0.0598 for the first, 0.264 for the second.

Compared with A35U A36G, A35G A71G is lower in self-cleavage: 0.901 for the first, 0.542 for the second.

Compared with A35G A71C, U33G G57A is lower in self-cleavage: 1.16 for the first, 0.115 for the second.

Compared with U33G G57C, G34A A45C is higher in self-cleavage: 0.108 for the first, 0.202 for the second.

First: G34C U55C
Second: A35G A49C
The self-cleavage of the first is higher: 1.19 for the first, 0.12 for the second.

Going from A35G A49G to G34C G51A, the self-cleavage rises from 0.433 to 1.61.

Compared with A35U A39G, A35U A39U is lower in self-cleavage: 0.433 for the first, 0.391 for the second.

Going from U33G U58C to G34A U60G, the self-cleavage rises from 0.119 to 1.

Going from A35U U70G to G34C G40U, the self-cleavage falls from 0.874 to 0.541.

First: U33G U62A
Second: U33G U62G
The self-cleavage of the first is higher: 0.126 for the first, 0.0966 for the second.

Compared with U33G U52C, U33G U52A is higher in self-cleavage: 0.145 for the first, 0.17 for the second.

Compared with G34C C50G, G34C C50U is lower in self-cleavage: 1.45 for the first, 1.36 for the second.

Compared with A35C C46A, G34A A64U is higher in self-cleavage: 0.0748 for the first, 0.125 for the second.

Compared with U33C C48U, G34C A64G is higher in self-cleavage: 0.118 for the first, 0.792 for the second.

Compared with G34C A64U, A36C U67G is lower in self-cleavage: 0.442 for the first, 0.175 for the second.

Going from A36C U67C to A36C U67A, the self-cleavage rises from 0.102 to 0.174.

First: G34U U62G
Second: G34A A35U
The self-cleavage of the first is lower: 0.139 for the first, 0.569 for the second.

Going from A36C U60C to A36C U60G, the self-cleavage falls from 0.794 to 0.361.

Going from A35U C38G to A35U A59U, the self-cleavage falls from 0.235 to 0.117.

First: G34U U58A
Second: G34U A47C
The self-cleavage of the first is higher: 1.5 for the first, 1.2 for the second.

Going from G34C U63A to G34C U63G, the self-cleavage falls from 0.293 to 0.262.

Going from G34A A71C to U33C G57U, the self-cleavage falls from 1.6 to 0.19.

First: U33G C48G
Second: U33G C48U
The self-cleavage of the first is higher: 0.209 for the first, 0.112 for the second.

First: A35U C66A
Second: U33C G69U
The self-cleavage of the first is higher: 0.154 for the first, 0.0808 for the second.

Going from A35G C65A to G34A A36U, the self-cleavage falls from 0.867 to 0.832.

Going from G34A A36G to U33C G68C, the self-cleavage falls from 1.19 to 0.0535.

Going from A35G U60G to G34C U58G, the self-cleavage rises from 0.443 to 1.09.

Compared with G34C U58A, G34A A41U is lower in self-cleavage: 1.27 for the first, 1.23 for the second.

Compared with G34A U55C, A35C U62C is lower in self-cleavage: 0.487 for the first, 0.103 for the second.

First: A35C U62G
Second: A35C U62A
The self-cleavage of the first is lower: 0.172 for the first, 0.226 for the second.

Compared with G34C A43G, G34U A43U is lower in self-cleavage: 0.0982 for the first, 0.0758 for the second.

First: G34U A43C
Second: A35C G51C
The self-cleavage of the first is lower: 0.0997 for the first, 0.725 for the second.

First: A35C U55A
Second: A35C U55G
The self-cleavage of the first is lower: 0.177 for the first, 0.27 for the second.

First: U33C A49G
Second: A36C A71U
The self-cleavage of the first is lower: 0.123 for the first, 0.654 for the second.

First: A36C A71C
Second: A35U G54A
The self-cleavage of the first is higher: 0.975 for the first, 0.197 for the second.

Going from A35U G54C to A35U U62C, the self-cleavage rises from 0.0851 to 0.0853.

First: A35U U62G
Second: G34A U67G
The self-cleavage of the first is lower: 0 for the first, 0.346 for the second.

Compared with G34A U67C, G34A G69U is lower in self-cleavage: 0.463 for the first, 0.208 for the second.

First: A35U A71G
Second: A35U A71U
The self-cleavage of the first is lower: 0.962 for the first, 0.978 for the second.

First: A35C G69U
Second: U33C C50A
The self-cleavage of the first is higher: 0.189 for the first, 0.114 for the second.

Compared with U33C U53C, G34A C46U is lower in self-cleavage: 0.154 for the first, 0.135 for the second.

First: G34U A61G
Second: G34U A61C
The self-cleavage of the first is lower: 0.636 for the first, 1.2 for the second.

Going from G34C G69C to A35C G68U, the self-cleavage falls from 0.564 to 0.226.

Compared with A35C A44G, G34A A49C is higher in self-cleavage: 0.0678 for the first, 0.12 for the second.

Compared with G34A A49G, U33C C38U is lower in self-cleavage: 0.754 for the first, 0.0575 for the second.

First: G34C A35C
Second: G34C A35G
The self-cleavage of the first is lower: 1.25 for the first, 1.4 for the second.

Going from U33G A45C to U33G A45G, the self-cleavage falls from 0.112 to 0.0332.

First: U33G U53G
Second: U33G U53C
The self-cleavage of the first is higher: 0.211 for the first, 0.204 for the second.

First: U33G C46U
Second: U33G C46A
The self-cleavage of the first is higher: 0.16 for the first, 0.0768 for the second.

Going from A35C U67G to G34U A64C, the self-cleavage rises from 0.278 to 0.376.

Going from G34U A64G to U33G A59C, the self-cleavage falls from 1.17 to 0.139.

Going from A36C C37A to A36C C37U, the self-cleavage falls from 0.185 to 0.148.

Going from U33G A71U to U33G A71C, the self-cleavage rises from 0.067 to 0.307.

Compared with G34U A71U, G34U A71G is higher in self-cleavage: 1.36 for the first, 1.58 for the second.

Going from A35U A41G to A35U A41C, the self-cleavage rises from 0.599 to 0.957.

Going from G34C U67G to A35C G42A, the self-cleavage falls from 0.517 to 0.129.

Going from A35C G42U to A36G A43G, the self-cleavage falls from 0.342 to 0.0267.

Compared with A35U A44C, A35U A44U is lower in self-cleavage: 0.267 for the first, 0.0832 for the second.

First: U33C U67G
Second: G34A C37U
The self-cleavage of the first is lower: 0.21 for the first, 0.915 for the second.

Going from A36G A64G to A36G A64U, the self-cleavage falls from 0.492 to 0.138.

First: A35U A61G
Second: G34U G51U
The self-cleavage of the first is lower: 0.137 for the first, 1.04 for the second.

Going from G34C G42U to U33G, the self-cleavage falls from 1.19 to 0.127.

Going from G34U C48U to U33C C37U, the self-cleavage falls from 0.695 to 0.0997.

Compared with U33C C37A, G34C C46G is lower in self-cleavage: 0.182 for the first, 0.0437 for the second.

G34C C46A showed a self-cleavage of 0.238.
